Consider three molecules from patent US20240109967A1 (University of Pennsylvania, published 2024).

For test [1], the target named is T1, human complement C1q (in normal human complement serum) (human, UniProt P02745 23-245; P02746 28-253; P02747 29-245).
T1 construct: also called human serum complement
The test can be described thus: complement fixation ELISA: antibody on captured cCTLA-4, human serum complement, anti-human C1q HRP. (In general: In an ELISA, binding on a coated surface is turned into a signal by an enzyme label.)

Test [2] deals with T2, recombinant human CD80-Fc chimera (carrier free, BioLegend) (human, UniProt P33681 35-242).
T2 construct: Commercial protein; also called huCD80-Fc; huCD80; not shown: Fc of the commercial chimera, not described
T2 sequence (looked up): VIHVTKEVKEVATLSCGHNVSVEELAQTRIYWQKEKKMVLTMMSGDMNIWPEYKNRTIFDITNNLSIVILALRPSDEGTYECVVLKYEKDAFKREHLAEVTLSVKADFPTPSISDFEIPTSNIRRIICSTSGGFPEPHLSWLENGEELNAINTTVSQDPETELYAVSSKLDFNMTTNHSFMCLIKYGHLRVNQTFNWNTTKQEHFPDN
The experiment in a line: ELISA: biotinylated cCTLA-4 ECD on plate-bound human CD80-Fc, streptavidin-AP, no antibody.

Test [3] deals with T3, recombinant human CD86-Fc chimera (carrier free, BioLegend) (human, UniProt P42081 24-247).
T3 construct: Commercial protein; also called huCD86-Fc; huCD86; not shown: Fc of the commercial chimera, not described
T3 sequence (looked up): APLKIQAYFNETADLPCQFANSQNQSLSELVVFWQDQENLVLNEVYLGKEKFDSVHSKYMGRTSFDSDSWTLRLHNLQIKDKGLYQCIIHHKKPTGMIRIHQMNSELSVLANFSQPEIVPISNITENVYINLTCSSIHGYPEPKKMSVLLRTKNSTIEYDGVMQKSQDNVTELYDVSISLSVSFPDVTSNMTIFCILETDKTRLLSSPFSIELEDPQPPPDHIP
The test can be described thus: ELISA: biotinylated cCTLA-4 ECD on plate-bound human CD86-Fc, streptavidin-AP, no antibody.

T1 sequence (P02745 23-245 limits assumed, chain 1 of 3): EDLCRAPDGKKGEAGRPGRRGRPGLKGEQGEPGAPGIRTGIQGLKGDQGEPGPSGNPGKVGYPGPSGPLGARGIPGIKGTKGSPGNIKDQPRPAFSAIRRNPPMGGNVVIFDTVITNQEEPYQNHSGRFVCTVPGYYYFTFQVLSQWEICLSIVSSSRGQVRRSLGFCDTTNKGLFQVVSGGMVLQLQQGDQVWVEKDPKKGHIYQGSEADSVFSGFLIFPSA
T1 sequence (P02746 28-253 limits assumed, chain 2 of 3): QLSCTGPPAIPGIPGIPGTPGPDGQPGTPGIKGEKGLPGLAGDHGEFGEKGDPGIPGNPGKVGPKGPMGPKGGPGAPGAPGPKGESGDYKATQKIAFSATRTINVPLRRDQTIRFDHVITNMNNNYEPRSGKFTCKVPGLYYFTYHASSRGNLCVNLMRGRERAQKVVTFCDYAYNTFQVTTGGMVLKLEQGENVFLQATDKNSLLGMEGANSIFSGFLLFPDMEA
T1 sequence (P02747 29-245 limits assumed, chain 3 of 3): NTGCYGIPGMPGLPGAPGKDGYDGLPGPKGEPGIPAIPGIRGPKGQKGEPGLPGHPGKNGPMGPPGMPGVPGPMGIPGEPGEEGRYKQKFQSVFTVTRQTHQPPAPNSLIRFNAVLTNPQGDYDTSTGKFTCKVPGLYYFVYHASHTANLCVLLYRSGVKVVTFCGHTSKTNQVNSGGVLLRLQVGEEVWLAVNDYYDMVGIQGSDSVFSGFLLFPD

B1: A1mut2 full-length canine IgG1 (IgGA) mAb (antibody)
heavy: EVQLVETGGDLVKPGGSLRLSCVASGFSFSSYAMNWVRQAPEKGLQLVGGINSGGSSTYYTDAVKGRFTISRDNAKNTVYLQMNSLRAEDTAVYYCAISNWAYWGQGTLVTVSSASTTAPSVFPLAPSCGSTSGSTVALACLVSGYFPEPVTVSWNSGSLTSGVHTFPSVLQSSGLYSLSSMVTVPSSRWPSETFTCNVVHPASNTKVDKPVFNECRCTDTPPCPVPEPLGGPSVLIFPPKPKDILRITRTPEVTCVVLDLGREDPEVQISWFVDGKEVHTAKTQSREQQFNGTYRVVSVLPIEHQDWLTGKEFKCRVNHIDLPSPIERTISKARGRAHKPSVYVLPPSPKELSSSDTVSVTCLIKDFYPPDIDVEWQSNGQQEPERKHRMTPPQLDEDGSYFLYSKLSVDKSRWQQGDPFTCAVMHETLQNHYTDLSLSHSPGKGGGSGGGSYPYDVPDYA
light: QAVLNQPASVSGSLGQRVTISCTGSSSDIGKSYVAWYQQLPGTGPRTLINVDGNRASGVPDRFSVSRSGNTATLTISGLQAEDEADYHCSSWDWSLHTYVFGSGTQLTILGQPKASPSVTLFPPSSEELGANKATLVCLISDFYPSGVTVAWKADGSPITQGVETTKPSKQSNNKYAASSYLSLTPDKWKSHSSFSCLVTHEGSTVEKKVAPAECS
notes: The HA tag is said to be appended to the carboxyl termini of the full-length IgGs and is placed here on the heavy chain; also called A1mut2 mAb; A1mut2 antibody
As for B1, the binding result in test [1] was “no binding (tested: 10 ug/ml antibody)”.

B2: A1mut2 full-length canine IgG4 (IgGD) mAb, HA-tagged (antibody)
heavy: EVQLVETGGDLVKPGGSLRLSCVASGFSFSSYAMNWVRQAPEKGLQLVGGINSGGSSTYYTDAVKGRFTISRDNAKNTVYLQMNSLRAEDTAVYYCAISNWAYWGQGTLVTVSSASTTAPSVFPLAPSCGSTSGSTVALACLVSGYFPEPVTVSWNSGSLTSGVHTFPSVLQSSGLYSLSSMVTVPSSRWPSETFTCNVVHPASNTKVDKPVPKESTCKCISPCPVPESLGGPSVFIFPPKPKDILRITRTPEITCVVLDLGREDPEVQISWFVDGKEVHTAKTQPREQQFNSTYRVVSVLPIEHQDWLTGKEFKCRVNHIGLPSPIERTISKARGQAHQPSVYVLPPSPKELSSSDTVTLTCLIKDFFPPEIDVEWQSNGQPEPESKYHTTAPQLDEDGSYFLYSKLSVDKSRWQQGDPFTCAVMHEALQNHYTDLSLSHSPGKGGGSGGGSYPYDVPDYA
light: B1 light
notes: also called A1mut2 IgGD
For the molecule B2, in test [1], the binding result is “no binding (tested: 10 ug/ml antibody)”.

B3: recombinant canine CTLA-4 extracellular domain protein (receptor, not shown: small tags and cut ends)
chain: KGMHVAQPAVVLASSRGVASFVCEYGSSGNAAEVRVTVLRQAGSQMTEVCAATYTVEDELAFLDDSTCTGTSSGNKVNLTIQGLRAMDTGLYICKVELMYPPPYYVGMGNGTQIYVIDPEPCPDSD
modifications: biotin on the Avi tag (BirA ligase) in the ELISA, panning and interaction assays
notes: Cloned into pFUSE containing an HA tag, made in 293T cells; The SPR analyte is called soluble cCTLA-4 ECD, and biotinylation is not mentioned there; also called cCTLA-4; cCTLA-4 ECD
Consider B3, for which the binding result in test [2] and in test [3] was “binds” in each case.
